Four molecules from article PMC9581967, “Helical ultrastructure of the metalloprotease meprin α in complex with a small molecule inhibitor” (Nature Communications, 2022) can be followed below.

For series [1], the target named is meprin α R372A (human (from the printed accession Q16819)) (UniProt Q16819). In words: electron microscopy; variants imaged, concentration not stated (below the high concentration of 3 µM); N counts subunits.
The target is the same in series [2]. As to the kind of experiment: mass photometry; single-molecule mass measurement, 20 °C; low concentration (10 nM in the results, roughly 2-5 nM in the methods); association of homodimers through the helical interface; N counts subunits.
In series [3] the target is meprin α R372T (human (from the printed accession Q16819)) (UniProt Q16819). As to the kind of experiment: electron microscopy; variants imaged, concentration not stated (below the high concentration of 3 µM); N counts subunits.
The target is the same in series [4]. As to the kind of experiment: MALDI-TOF mass spectrometry; linear positive mode, DHAP matrix; shows only covalently (disulphide) linked species; N counts subunits.
Series [5] has as its target meprin α wild type (V22-S600 construct; zymogen or activated form not told for the experiment) (human (from the printed accession Q16819)) (UniProt Q16819). The series is described as above.
Series [6] deals with the molecule itself. In words: cryo-EM structure; meprin α alone (zymogen or active form), helical filament of covalent homodimers; 30 mM Tris, 100 mM NaCl, pH 7.4; pseudo single-particle analysis of filament segments.

For the molecule “meprin α R372A (from UniProt Q16819 22-600) (enzyme)”, the stoichiometry N in series [1] amounted to 2; in series [2] it was 4.

Regarding “meprin α R372T (from UniProt Q16819 22-600) (enzyme)”, the stoichiometry N in series [3] and in series [4] was 2 each time.

In turn, “meprin α wild type (V22-S600 construct; zymogen or activated form not told for the experiment) (from UniProt Q16819 22-600) (enzyme)” showed a stoichiometry N in series [5] of 2.

B1: pro-meprin α (V22-S600), wild type zymogen (enzyme, UniProt Q16819 22-600, looked up)
chain: VPIKYLPEENVHDADFGEQKDISEINLAAGLDLFQGDILLQKSRNGLRDPNTRWTFPIPYILADNLGLNAKGAILYAFEMFRLKSCVDFKPYEGESSYIIFQQFDGCWSEVGDQHVGQNISIGQGCAYKAIIEHEILHALGFYHEQSRTDRDDYVNIWWDQILSGYQHNFDTYDDSLITDLNTPYDYESLMHYQPFSFNKNASVPTITAKIPEFNSIIGQRLDFSAIDLERLNRMYNCTTTHTLLDHCTFEKANICGMIQGTRDDTDWAHQDSAQAGEVDHTLLGQCTGAGYFMQFSTSSGSAEEAALLESRILYPKRKQQCLQFFYKMTGSPSDRLVVWVRRDDSTGNVRKLVKVQTFQGDDDHNWKIAHVVLKEEQKFRYLFQGTKGDPQNSTGGIYLDDITLTETPCPTGVWTVRNFSQVLENTSKGDKLQSPRFYNSEGYGFGVTLYPNSRESSGYLRLAFHVCSGENDAILEWPVENRQVIITILDQEPDVRNRMSSSMVFTTSKSHTSPAINDTVIWDRPSRVGTYHTDCNCFRSIDLGWSGFISHQMLKRRSFLKNDDLIIFVDFEDITHLS
modifications: N-linked glycosylations
notes: meprin α, UniProt Q16819, residues V22-S600 (native signal peptide omitted, stop codon after S600; lacks the EGF-like and transmembrane regions); pro-peptide still on the chain; Disulphide-linked (C308) homodimer; the homodimers join non-covalently into a helical filament; Secreted through the BiP signal peptide of pMT/BiP/V5; also called latent state; meprin α ectodomain; source: Schneider-2 …
Consider B1, for which, in series [6], the binding result was “binds”.
